In patent US8361793B2, “Monoclonal antibodies against gonadotropin-releasing hormone receptor” (Vancouver Biotech Ltd., priority 2009, dated 2013):

T1: GnRH receptor on OC-3-VGH cancer cells (Homo sapiens, UniProt P30968)
T1 construct: endogenous in cells; host or cells: OC-3-VGH ovarian cancer cells
T1 sequence (P30968 1-328): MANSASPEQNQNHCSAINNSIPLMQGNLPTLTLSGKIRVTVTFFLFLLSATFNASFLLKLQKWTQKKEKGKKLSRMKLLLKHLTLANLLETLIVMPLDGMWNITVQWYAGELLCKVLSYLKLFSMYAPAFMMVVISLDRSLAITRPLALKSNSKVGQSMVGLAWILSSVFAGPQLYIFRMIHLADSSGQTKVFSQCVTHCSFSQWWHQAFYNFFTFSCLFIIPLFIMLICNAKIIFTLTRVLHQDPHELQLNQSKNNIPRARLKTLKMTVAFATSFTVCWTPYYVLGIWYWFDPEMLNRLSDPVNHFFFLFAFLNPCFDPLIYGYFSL

T2: synthetic peptide corresponding to the N-terminal 1-29 amino acid residues of human GnRH receptor (Homo sapiens, UniProt P30968)
T2 construct: purchased Gemed Lab, South San Francisco, Calif. and Genescript, NJ (custom synthesis)
T2 sequence (P30968 1-29 limits assumed): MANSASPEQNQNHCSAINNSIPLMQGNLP

T3: human GnRH receptor (Homo sapiens, UniProt P30968)
T3 construct: endogenous in cells; host or cells: OC-3-VGH ovarian cancer cells
T3 sequence (P30968 1-328): T1 sequence (P30968 1-328)

B1: GHR-106: monoclonal antibody against synthetic peptide of positions 1-29 of the extracellular domain of human GnRH receptor; hybridoma ATCC PTA-10252 (antibody, V domains shown)
VL: MDSQAQVLILLLLWVSGTCGDIVMSQSPSSLAVSAGEKVTMSCKSSQSLLNSRTRKNYLAWYQQKPGQSPKLLIYWASTRESGVPDRFTGSGSGTDFTLTISSVQAEDLAVYYCKQSYNLYTFGGGTKLEIK
VH: QVQLKESGPGLVAPSQSLSITCTVSGFSLSRYSVHWVRQPPGKGLEWLGMIWGGGSTDYNSALKSRLSISKDNSKSQVFLKMNSLQTDDTAMYYCARGNDGYYSFAYWGQGTLVTVSS
modifications: Synthetically constructed monoclonal antibody GHR106
B2: GHR-103: monoclonal antibody to human GnRH receptor; amino acid sequence determined to be the same as that of GHR-106 (antibody, V domains shown)
VL: B1 VL
VH: B1 VH

Assays:
[1] = test system: OC-3-VGH ovarian cancer cells; experiment: MTT assay, anti-proliferative effects; type: cell-based, human; conditions: 48 hrs; GnRH 0.1 μg/ml, Antide 0.1 and 0.2 μg/ml, GHR-106 10 and 20 μg/ml
Experimental: Anti-proliferative effects of GnRH and GHR-106 monoclonal antibody on the growth of cultured cancer cells were also studied by MTT assay. An MTT assay was performed on cancer cells on a 24-well plate, as described by Choi, J-H, et al., Endocrine-Related Cancer (2006) 13:641-651.
1×10^4 Cells were dispensed into each well and cultured for 48 hours. Following removal of cultured media, fresh medium containing GnRH (0.1 μg/ml) or GHR-106 (10 μg/ml) was added to each well for additional 48 hours incubation. After the culture medium was removed, 200 μl of MTT (3-(4,5-dimethylthiazol-2-yl)-2,5-diphenyltetrazoliumbromide) (2.5 mg/ml in PBS, Sigma) was added to each well. After 5 hours of incubation with MTT at 37° C. in a 5% CO2 incubator, the supernatant was removed, and 200 μl of dimethylsulfoxide (DMSO) was added to each well, and shaking at 150 rpm for 5 min. Absorbance at 560 nm was determined spectrophotometrically. The negative control containing cells without any antibody treatment served as the negative control.

[2] = test system: ribosomal proteins (P0, P1, P2 and L37) mRNA in OC-3-VGH cancer cells; experiment: Semi-quantitative RT-PCR of mRNA expression of ribosomal proteins; type: cell-based, human; conditions: 24 hours, GHR-106 10 μg/ml, GnRH 0.1 μg/ml, relative to GAPDH
From the text: Four ribosomal proteins (P0, P1, P2 and L37) were selected for semi-quantitative analysis of mRNA expression. Expression of mRNA of GAPDH gene was used as the internal control. Primers for amplification were as follows:
A housekeeping gene, glyceraldehyde-3-phosphate dehydrogenase (GAPDH) was amplified to check the functional integrity of cDNA and used as internal control by using 5′-[…]-3′ (sense) (SEQ ID NO:20) and 5′-[…]-3′ (antisense) (SEQ ID NO:21) as primers (805 bp) (11).
RNA extraction, cDNA preparation and PCR amplification were conducted as described above in Preparation A.
Percent changes in RT-PCR signals which represent levels of P0, P1, P2, and L37 ribosomal proteins are presented with respect to GAPDH (100%) at 0 and 24 hrs. Messenger RNA expression of these genes of cultured cells without GHR-106 treatment served as the internal negative control and those with GnRH treatment served as positive control.

[3] = molecular target: T1, GnRH receptor on OC-3-VGH cancer cells; experiment: Competition with GHR-106 for binding to microwells coated with OC-3-VGH cancer cells; conditions: 2 μg/ml GHR-106; GnRH 0.1 to 10 μg/ml
Experimental: (§1) Microwells coated with synthetic peptide or cancer cells were used to estimate the affinity constant between GHR-106 and GnRH receptor. Following one hour incubation at 37° C. with GHR-106 in microwells, goat anti-mouse IgG labeled with alkaline phosphatase served as the second antibody for signal detection with p-nitrophenylphosphate.
The decrease in relative signal intensity of antibody binding to cancer cells with increasing GnRH concentrations ranging from 0.1 to 10 μg/ml is shown in FIG. 3A.

[4] = test system: A549; experiment: TUNEL apoptosis assay, A549; type: cell-based, human; conditions: 24-hour treatment
[5] = test system: DU-145; experiment: TUNEL apoptosis assay, DU-145; type: cell-based, human; conditions: 24-hour treatment
[6] = test system: MDA-MB-435S; experiment: TUNEL apoptosis assay, MDA-MB-435S; type: cell-based, human; conditions: 24-hour treatment
[7] = molecular target: T2, synthetic peptide corresponding to the N-terminal 1-29 amino acid residues of human GnRH receptor; experiment: ELISA, dose-dependent binding to microwells coated with synthetic peptide; conditions: one hour incubation at 37° C.
Experimental: as §1

[8] = test system: OC-3-VGH cancer cells; experiment: ELISA, dose-dependent binding to microwells coated with cancer cells; parameters: species or system human; conditions: one hour incubation at 37° C.
Experimental: as §1

[9] = molecular target: T3, human GnRH receptor; experiment: Western blot assay of OC-3-VGH ovarian cancer cell extract; type: binding; conditions: OC-3-VGH cancer cell extract
Experimental: Western blot assay was performed with GHR-106 using alkaline phosphatase-labeled goat anti-mouse IgG as the detecting probe.

Molecule	anti-proliferative effect (relative absorbance at 560 nm normalized with negative control) [1]	mRNA expression of four ribosomal proteins (P0, P1, P2 and L37) [2]	% Apoptosis (Negative Control*) ([4]; A549, 10 μg/mL)	% Apoptosis (Negative Control*) ([4]; A549, 20 μg/mL)	% Apoptosis (Negative Control*) ([5]; DU-145, 10 μg/mL)	% Apoptosis (Negative Control*) ([5]; DU-145, 20 μg/mL)	% Apoptosis (Negative Control*) ([6]; 20 μg/mL)	dose-dependent binding to 1-29 synthetic peptide coated onto microwells [7]	dose-dependent binding to OC-3-VGH cancer cells coated on microwells [8]	molecular weight of protein band recognized in Western blot [9]	also measured
Antide	induce apoptosis, although to a much lesser extent										
Gonadotropin releasing hormone [GnRH I, reference compound]	significantly inhibit the growth of cultured cancer cells	down regulation of mRNA expression									
MANSASPEQNQNHCSAINNSIPLMQGNLP (SEQ ID NO:7) (PEPTIDE (1)...(29) extracellular domain of human GnRH receptor; listed as Homo sapiens) [1-29 synthetic peptide, synthetic peptide corresponding to N-terminal residues 1-29 of human GnRH receptor]											inhibition of the binding of GHR-106 to cancer cells coated on microwells [3]: inhibit GHR-106 binding
RP215: antibody used as positive control in the apoptosis assay [reference compound]			30 ± 9 (11 ± 5)^+ %	36 ± 12 (17 ± 3)^+ %	32 ± 7 (12 ± 3)^+ %	43 ± 4 (19 ± 15)^− %	37 ± 8 (6 ± 1)^+ %				
B1	significantly inhibit the growth of cultured cancer cells	significant decrease in expression	34 ± 10 (11 ± 5)^+ %	46 ± 11 (17 ± 3)^+ %	32 ± 2 (12 ± 3)^+ %	32 ± 5 (19 ± 15)^− %	45 ± 11 (6 ± 1)^+ %	dose-dependent binding	dose-dependent binding	approximately 60 KDa	% Apoptosis (Negative Control*) ([6]; 10 μg/mL): 31 ± 4 (7 ± 2)^+ %
B2								dose-dependent binding	dose-dependent binding	60 KDa	
